Reference: the domain aggregation screens of Martell et al. (2025)

assay: soluble fraction after stress (log2 fold change); higher = more stays soluble; pooled small domains, quantitative proteomics; conditions: stress: 75 degC
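Note: 20 min heating vs room temperature control held 20 min.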

In order of falling “soluble fraction (log2)” value:
1. HMETMSGTVKWFNTQKGYGFITGDDGAEYFAHQTQIKMDGFRTLDAGDIVEFDVRSEEKGLAAVNIVP  0.781
2. HMEVVELTDDEKMILATLHDGPVEIGHIKQVVGLSGKKWDAATKSLRQKGLINVVLENEQKLMVK  0.492
3. HMEVEIPSREALLGLVQKHLKPVSFDEFVSHFKLGDERQQVGIKRRLRAMERDGQLVYTKANSYGLPDRM  0.436
4. HMESYDSEIKEVLDLAGKGRWEEAQTKADALREMAPNNSLVERLHGWVLQAAHQRREQALENDIRE  0.432
5. HMFDDLSTNLRDLAHNYIEKYSPSKQQLKVFLLKKYLMKFKGSKTKKEISEIIDKIISNLEENKYLNDEL  0.36
6. HMESAEQTGEELAARVNVLQTVSQALARELGREAAVEELADKMKMTVDEVKDIMKMAMDAMSM  0.294
7. HMFDTVKIGKRIAELRKKRDMTQFELADRLGISYQAVSNWERGNSMPDIAKLPELAEIFGVTVDEILG  0.283
8. HMFASSADGVEGLKTNPIFASTKEKSDAGKLLYTRYLAIGIFRMLELAKATDPKALEALVEAGG  0.259
9. HMESADEESNALMYDGLLAMRGKRYEVALEFFDALVKHDPDFAEGWNKRATVLYLLGRYERSIADIKQVLA  0.239
10. HMEWGEADFVRLDEALATLRTLSPRQAEVVDLRFFSELSLEETAATLGLSLATVKRDWSVARLYLQRALS  0.198
11. HMEVPNLIGMTDKDLQRTYFQLPIEAAGDGSVVIKQLPEPGEKVKEGSVIRVLLG  0.193
12. HMESVTETFLTNLINRYIADKAGYIISYPSEYRIEVLYHGGQVLDYENLRKSINTYIPAHIGYKLVTI  0.176
13. HMETYTVPEVLGLTPEQAAQLPEVKDIFTLDVKEEGDFSDKPVGTIVRQSPTEGEHRKGDNLVIEVWLSV  0.166
14. HMETGGLAQEAERELALLQEQIAHHEALYRKGTPEISDGAFDELFDRYQELADSLGVPADERIDRA  0.155
15. HMEVKEVDYSAFMTMTEENSISKVEIEENQILFKKKGDDQTTYKTARMDDPALITRLHDQGVDFTGQ  0.139
16. HMETPDLTQLNPILDEYRGQKGAVIPVLQKAQKIYGFLPPEVLRRIAAGMRVPLSKIYGVATFYSQFY  0.134
17. HMERNAEDFAAKYQEIYQDMFRFALYTLKNRQEAEDVVSETVLDAWKGIEGLKNESAFSAWMFRILVNK  0.126
18. HMETKVIVPKVTGMNSKSAINYLSARGLKYKAVPADSGKSFHVVDQYPKSGTKVSPHSTVYLYS  0.114
19. HMESGFEAVREVARHGSFANAAKALGVSGPAVSRQVKSLEERLGLVFFHRTTRMVTLTEAGQQLVDTLD  0.0837
20. HMESENANVNRAMLTGIASMHAGQLETALNKFNEVIQLAPDFAEGWNKRATIFYLMKKFDRSVNDIAQTLK  0.0648
21. HMFAGEWKQDASGWWYQNDDGSFTRNGWQNISGKQYYFNENGYMLHDTTTPDGKQVGSDGSLV  0.0573
22. HMETADREILLREIREIINERVDYNKDITDDEMKELVMNTVFERSRQQYMSIQDKQEIIQAIFNSMR  0.029
23. HMETLKEVPNLKGQQQEVAKQLLINAGLGVGKINIIEDSTIADGEVVTQSILPNTKVKKDTYVGFTVNKAP  0.0288
24. HMETLKLRDSGKEVQSLQELLQRQGLSAPMNGIFDEATKSSVIAFQKANGLDADGIVGYKSWETLFTAG  0.0141
25. HMETVSFNPDIAVIPDYRHVVILGETTKTIANKYDIPVDILKAANPGLGNNVTKGDRLRVPDKTKLQ  0.00398
26. HMESIEAGTFELDNKTSIDISEDEANLLNKMFEELTETNSKDMYGVMVADEAGFNEILEFAKENL  0.00321
27. HMETVQTGTVKVSNSLNVRSGAGTNYSVLGSLSNGAKVEIVGTSGSWYKIKYGSGYGYVSKDYVTVS  -0.0122
28. HMETYHIQMKGDPSKGIVGFSQLDMVIDKIKRLETEKGIAPYELEVLDGDTMEKYSGEEFLTMHE  -0.0165
29. HMEWTVEKQAAATLNAWMRKNSEMTSEKKVAVAAGIGPATVNRIMKAEVSTTIGVLSSLARAFGHEAYEMI  -0.0249
30. HMEYSKSIKRLREDKNLTVEELAKRLSLDVEEIQKAEDGEDVDQKTLEAIARYFGVQYDSLVEGTAKSK  -0.0335
31. HMESYTEEMLEKMSVSKLRTIARELQVDNMTREQIRFGKKTELIQNILEFTGREIENMQLYDK  -0.0481
32. HMFEARNTTFSEDGKTITETYGVKRIETEFVSDSTIVQKLYDNDVLTKTKTITFSADGLSIKEDV  -0.0561
33. HMEVPFRNAAIFKTRSGDYAIRASYDGVDLGIKPIEKSTARTYFQLTDVKDKESFLNMTARNQYESEIAGI  -0.0612
34. HMEVKRANRKERFLEALPYQFSRQDYLNIADKNKIPHKTAEGYITKFVDAGLIHREAHNNYTNPTKA  -0.0913
35. HMEVLTEPKVQSIDTHGEKSTFVIESPNPLQPDEIAKLVGADGISVRVDRTWLKSHRDSTWTYSILTVS  -0.118
36. HMESPVNTLPEDQRAWYKALPPELSTKTAVEAGAGVGVSERTVKRLLSNQTFFINLQRGNYRKRH  -0.119
37. HMESRRVTLLLPYDKAGIADTLRREAAVLSLEYGEDGVTVEAVVKPELWGLVREYVQNDNPK  -0.135
38. HMEVSEGEIREKVESVFSSNPRQAYNYKQISKKLNINDKSERQIVWDVLRKLAGSGKIQEVEHGRFRARAE  -0.162
39. HMEVLPLHQVKLKYAEADTILIALKSAQSMLSPRGQLLADNRSQQIFVYDDEAHTATLIEAIKHLDQPL  -0.166
40. HMEYYWHQLKGLEVVNTRGESLGRVRRLLETGANDVLVLEGEQERLIPYVPDTIKQVDLAKGLIEVAWDRD  -0.17
41. HMFDGTLSIYPNPSKGIFNLDLLNVKDGEYTITVDNLLGQEVYSEIRNVINSSSKTLDLSNLTKGV  -0.204
42. HMEYDEVVVVKQIIPKGKNTMVAHLKHLKEHGETGFLKQAVGYLKLHASEIPFSVDAVISEVH  -0.253
43. HMESAESRVDLIGMIGEAITDLRPAGTAQFGEERIDVVSESEWITEGSTVKVVSAEGYRHVVRVME  -0.358
44. HMFAADIGVGIVDADSLRVRSEPSTGAPIVTSLLRGTQVTVQEKLDGWYRITYNDVSGFVSAEYLIFTADE  -0.358
45. HMFDLKKIYGTILDETKSSLLLSTDDGREVQIIKTDGTEVLASGLGVYVEVAYRDETPDGYPIALTI  -0.41
46. HMFDDEELDTFAGRQSDSYDQQEVEQFSDVLHTMRQDEVQAWWRSLTLRGISLPDELKDEVIML  -0.481
47. HMETDGGDLTPRERDVLSLIGRGLRNAEAASALGLSEHTIAGHIKSVYSKLGISTRAEAALLASRLGL  -0.499
48. HMEYDYKVIDFFKDYYSYLNYQEIEPNILDKQLTTLTEEESAKIAGIMKLDYEDFTRGIEIVTGS  -0.536
49. HMEVPQKTLEILEPWRGRKGFLIPVLQAVQHEFGYVPKEAIETVSREMKMPTAEIYGVVTFYAQFH  -0.571
50. HMETIHEMVNRLSSEGFIKNEDGIWYLRDRRGDGTKWLKNPFFESTGEKDAFALIDHLKVNDELLSKLRK  -0.621
51. HMETYSGVERAAILVMYLERTLAKALLDHMNDEEVRRVGMAMASIDRVEGPDIERIVGDFVRELYEVS  -0.642
52. HMESYWVVLRPMAAGTQIGANDLGYRSVALGAAAKNYLAASTNPIGSITRRRLVAGELLQGSSLTDDARA  -0.653
53. HMEVGVSGTVFNTDSLNVRKGPGTNFDTVTSLKRGSVVEVFEQSAVDGTVWGRIANGWVNMQYVSL  -0.707
54. HMETAESLLRRLIMLEDPAMQNAMYVLAVMLERGKQLVERAAKPHESGGILRVYEHKKSGDTFVVLDPR  -0.764
55. HMEYLIENYGSVINQARMKKGMTQEQLSSKTGVSQAYIRSIESQNMKPTDAVARKIEFELGIKLFE  -1.05
56. HMEVSKETFPAYVAVDSLPVYKSASTSSSKVTTIDFGREVTVVETRGGWAKIQYGSYKGFAEIEGMSKN  -1.06
57. HMESNWLTYAKRIQSIADTGMTFAVDDFDKERYQELADISSKMLADLSNIPIGRIENLLGPLGQ  -1.11
58. HMETKIKFQIQTLDELNIRKVADWDAKAITTVKKGQILDVVDTVAAKNGSTPMYRLESGLYITASPKYVKK  -1.16
59. HMETQAGELQDAIRDAIAALPPRTREVFLMSRERNLRYGEIAEALGISVKAVEANMSRALRQLREKLSPFL  -1.26
60. HMETVMYLRQIKRPQGIYLAIQESYYDSSKKQSRTRTIESIGYLDNLRKEYEDPIAFFSQKAAAMTSEKKK  -1.55
61. HMFAKVEGITGDILDKLQQQRGFLALSDKSSPEAIYDTFGVSKKVFKQAIGTLFKQQKISIEAEGIRLV  -1.56
62. HMEVADAAQRKILQALQVQPLTVEQLSQELRTDTGDLLVSLSMMEITGLIRREAGNTFLAVFAPK  -1.66
63. HMESGNLIFTNAPIADVVNAIETRYGKKLQASNQTSDLQFTGIFKNTDEFSTVVKTIEIALGLQFEV  -1.67
64. HMFDFMVLGQAIKKARESKEMTREQLAEILDVAPRHIQSIENEGQYPSFPLFIRLVTMFNISVDQY  -2.31
65. HMFDGNIKIVEDAFSVTIVARGTEVKISGDPENVYLASKTVEGLLTLIDKGEAITDQRVHYVIGLVREG  -2.45
66. HMESRMTYLQKTKLATENLDAKLIDHQQWVAEVLGEDYRGVYSDEYLRRAAKVFAIFVNNLDD  -2.53
67. HMETINERVNSIIEREGHTVATFAKKIGVPWTTIKNIVSGRNAPSYDIMVKIINAVDWVDANYLVMG  -2.59
68. HMEYTTEELDSLLKLYFQTHESINRNEFEQLTSYTRTTASRRLKTLVQAGKLQNIGLYRFPVYKPTEGNF  -2.82
69. HMESFGVAIKRLREAQGWTRADFLRQLGKTGYYMHATTLKRIEEGEQIAKVHEAVIISRLFGVTVEEMG  -3.1
70. HMETKPTELMLDVHKLRIGMFVYLDLGWMDHPFPLNRFKISTNAQIEQIKGLRLKQVKVMTALSDPASLL  -4.91
